Measured values reported in patent US20150182581A1.

What was measured:
Experiment in all cases: cell-based or functional assay
[1] = target: HIV-1 Nef (full length Nef gene, accession no. GQ184335) cloned in VP16pCDNA+pACT mammalian two-hybrid vector (herpes simplex virus type 1; HIV-1)
[2] = target: ASK1(g) cloned in pEYFP-N1 (human) (UniProt Q99683)
[3] = target: ASK1(h) cloned in pEYFP-N1 (human) (UniProt Q99683)
[4] = target: ASK1i cloned in pEYFP-N1 (human) (UniProt Q99683)
Chain of ASK1i cloned in pEYFP-N1 (human) (Q99683 1-904): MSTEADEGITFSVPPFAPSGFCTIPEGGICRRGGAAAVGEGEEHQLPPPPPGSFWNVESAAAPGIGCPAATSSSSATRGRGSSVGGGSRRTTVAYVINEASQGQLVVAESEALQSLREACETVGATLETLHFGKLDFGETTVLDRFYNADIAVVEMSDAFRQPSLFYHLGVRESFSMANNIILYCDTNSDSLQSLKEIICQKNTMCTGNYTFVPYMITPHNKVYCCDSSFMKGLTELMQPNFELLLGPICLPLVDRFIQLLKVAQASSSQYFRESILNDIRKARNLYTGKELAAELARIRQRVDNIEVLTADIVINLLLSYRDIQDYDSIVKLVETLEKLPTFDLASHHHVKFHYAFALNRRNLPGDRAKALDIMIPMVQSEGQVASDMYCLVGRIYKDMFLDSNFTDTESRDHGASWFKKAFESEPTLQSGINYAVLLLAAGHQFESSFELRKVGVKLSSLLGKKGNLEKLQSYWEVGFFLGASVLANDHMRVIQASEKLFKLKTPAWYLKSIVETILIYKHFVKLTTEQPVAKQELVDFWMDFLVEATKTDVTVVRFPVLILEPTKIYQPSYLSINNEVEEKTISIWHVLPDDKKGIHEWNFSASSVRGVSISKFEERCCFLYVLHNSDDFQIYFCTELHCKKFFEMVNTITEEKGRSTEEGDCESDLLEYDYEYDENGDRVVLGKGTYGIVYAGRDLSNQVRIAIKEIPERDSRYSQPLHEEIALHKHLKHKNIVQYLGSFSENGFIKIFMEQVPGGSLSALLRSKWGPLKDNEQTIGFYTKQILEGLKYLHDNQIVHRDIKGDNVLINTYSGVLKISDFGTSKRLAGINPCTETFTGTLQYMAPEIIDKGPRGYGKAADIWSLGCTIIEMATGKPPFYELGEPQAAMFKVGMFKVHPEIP

Chain of ASK1(g) cloned in pEYFP-N1 (human) (Q99683 1-1050): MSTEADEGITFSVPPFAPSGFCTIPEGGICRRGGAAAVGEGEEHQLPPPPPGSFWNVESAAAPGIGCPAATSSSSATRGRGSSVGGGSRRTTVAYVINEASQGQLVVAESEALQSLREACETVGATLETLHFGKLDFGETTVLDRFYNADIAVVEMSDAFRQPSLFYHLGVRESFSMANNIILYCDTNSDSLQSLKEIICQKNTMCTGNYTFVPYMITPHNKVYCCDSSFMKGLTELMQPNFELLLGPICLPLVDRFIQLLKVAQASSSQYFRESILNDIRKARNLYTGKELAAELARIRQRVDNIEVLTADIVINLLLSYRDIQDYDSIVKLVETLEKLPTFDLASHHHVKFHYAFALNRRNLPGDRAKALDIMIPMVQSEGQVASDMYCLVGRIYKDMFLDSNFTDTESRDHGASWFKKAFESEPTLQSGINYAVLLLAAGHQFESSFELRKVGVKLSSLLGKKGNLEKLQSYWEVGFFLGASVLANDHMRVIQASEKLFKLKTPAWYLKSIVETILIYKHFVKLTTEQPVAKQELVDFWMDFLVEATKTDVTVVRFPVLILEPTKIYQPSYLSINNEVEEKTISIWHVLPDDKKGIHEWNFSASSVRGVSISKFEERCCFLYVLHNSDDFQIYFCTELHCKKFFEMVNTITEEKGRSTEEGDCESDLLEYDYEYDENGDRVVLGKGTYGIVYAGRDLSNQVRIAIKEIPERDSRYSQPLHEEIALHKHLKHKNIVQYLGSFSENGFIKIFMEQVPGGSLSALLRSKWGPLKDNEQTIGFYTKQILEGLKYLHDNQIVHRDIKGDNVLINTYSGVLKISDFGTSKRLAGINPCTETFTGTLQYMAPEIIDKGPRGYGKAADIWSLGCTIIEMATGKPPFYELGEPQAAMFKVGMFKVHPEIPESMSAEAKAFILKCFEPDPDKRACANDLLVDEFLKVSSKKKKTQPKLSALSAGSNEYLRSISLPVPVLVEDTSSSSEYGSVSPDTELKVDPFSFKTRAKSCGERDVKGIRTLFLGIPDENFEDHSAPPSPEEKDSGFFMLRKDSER
Chain of ASK1(h) cloned in pEYFP-N1 (human) (Q99683 320-1050): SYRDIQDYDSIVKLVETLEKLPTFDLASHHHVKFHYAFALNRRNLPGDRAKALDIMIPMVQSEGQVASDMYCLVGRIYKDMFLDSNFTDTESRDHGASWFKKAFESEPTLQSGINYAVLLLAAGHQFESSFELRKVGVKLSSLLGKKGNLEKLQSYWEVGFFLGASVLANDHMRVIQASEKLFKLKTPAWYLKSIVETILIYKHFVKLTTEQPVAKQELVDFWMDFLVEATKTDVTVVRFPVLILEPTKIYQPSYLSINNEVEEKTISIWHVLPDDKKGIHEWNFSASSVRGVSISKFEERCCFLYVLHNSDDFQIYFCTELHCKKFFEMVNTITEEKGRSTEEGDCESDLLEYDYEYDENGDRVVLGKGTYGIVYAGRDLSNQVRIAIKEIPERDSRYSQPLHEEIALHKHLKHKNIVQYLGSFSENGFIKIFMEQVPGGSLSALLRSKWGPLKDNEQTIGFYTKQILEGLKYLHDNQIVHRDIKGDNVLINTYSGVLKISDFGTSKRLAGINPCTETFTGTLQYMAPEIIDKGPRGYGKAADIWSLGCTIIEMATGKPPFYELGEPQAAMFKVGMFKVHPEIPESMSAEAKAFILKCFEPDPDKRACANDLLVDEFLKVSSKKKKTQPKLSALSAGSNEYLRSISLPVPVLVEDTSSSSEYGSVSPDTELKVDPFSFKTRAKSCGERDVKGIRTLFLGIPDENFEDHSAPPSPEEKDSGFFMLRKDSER

ASK1g (contain both ASK1a, ASK1d and in between sequence) cloned in pBIND (from UniProt P04386 1-147; Q99683 1-1050)
luciferase activity compared to negative control pACT-pBIND [1]: 154 fold

ASK1a (1-1035) cloned in pBIND (from UniProt P04386 1-147; Q99683 1-345)
luciferase activity compared to negative control pACT-pBIND [1]: 2.28 fold

ASK1d (2581-3152) cloned in pBIND (from UniProt P04386 1-147; Q99683 861-1050)
luciferase activity compared to negative control pACT-pBIND [1]: 2.89 fold

ASK1j (contain in between ASK1a and ASK1d fragment) cloned in pBIND (from UniProt P04386 1-147; Q99683 320-904)
luciferase activity compared to negative control [1]: 0.5 fold

HIV-1 Nef (accession no. GQ184335) cloned in pEYFP-N1
% of Annexin V cells means apoptotic cells [2]: 22.1% | annexin V stained cells after co-transfection [2]: 20% | inhibition of apoptosis [2]: 52% | inhibition of apoptosis (annexin V and PI staining) [2]: 50% | phosphorylation of JNK kinase (western blot, densitometry) [2]: 2 fold | annexin V stained cells after co-transfection [3]: 38% | inhibition of apoptosis [3]: 10% | annexin V stained cells after co-transfection [4]: 26% | inhibition of apoptosis [4]: 42%

ASK1i (contain ASK1a and downstream sequence) cloned in pBIND (from UniProt P04386 1-147; Q99683 1-904)
luciferase activity compared to negative control [1]: 2.72 fold

ASK1h (Contain ASK1d and upstream sequence) cloned in pBIND (from UniProt P04386 1-147; Q99683 320-1050)
luciferase activity compared to negative control [1]: 8.41 fold

ASK1b (959-2010) cloned in pBIND (from UniProt P04386 1-147; Q99683 320-670)
luciferase activity compared to negative control pACT-pBIND [1]: 1.1 fold
